# Legend:
# [1] = Medicament release of 3′-ethynylcytidine polymer derivative in the absence of enzyme (PBS, pH 7.4, 37° C.); assay type: physicochemical; conditions: 1 mg/mL, no hydrolysis enzyme
# Method: Compound 5, Compound 10, Compound 15, Compound 21 and Compound 22, and PEG-Glu-ECyd in which 3′-ethynylcytidine derivative is bonded to a polyethylene glycol-polyglutamic acid block copolymer, and PEG-Glu-(ECyd, PheOBzl) in which 3′-ethynylcytidine and phenylalanine benzyl ester are bonded to a polyethylene glycol-polyglutamic acid block copolymer, which were manufactured by the method described in the pamphlet of WO 2006/120914 A as the comparative compounds, were dissolved in PBS solution (phosphate buffered saline; pH 7.4) at 1 mg/mL of the concentration, respectively, and incubated at 37° C. The 3′-ethynylcytidine released from each polymer derivative was quantified using HPLC. The ratio to the total amount of the medicament in the polymer derivative found out from the quantified value and the content of the medicament of the polymer derivative are indicated in FIGS. 1 to 3.
# [2] = Particle size (RMS radius) and micelle formation in aqueous solution by dynamic and static light scattering; assay type: physicochemical; conditions: aqueous solution 1 mg/mL; for RMS radius by Gaussian distribution analysis (dynamic light scattering): volume weighting
# Method: Hereinafter, the present invention will be further explained with Examples. However, the present invention is not limited to these Examples. Meanwhile, when the compound of the present invention forms particles such as a micelle in an aqueous solution in Examples, the size of the particles (particle size) is indicated with Gaussian distribution analysis by dynamic light scattering method or by static light scattering method as RMS radius. The former was measured with Zeta Potential/Particle sizer NICOMP™ 380ZLS (manufactured by Particle Sizing Systems), and the latter was measured with DAWN EOS™ (manufactured by Wyatt Technology), and calculated.
# [3] = system: human lung cancer LC-11-JCK; test: Anti-tumor activity test, human lung cancer LC-11-JCK transplanted subcutaneously in F344 nude rat; assay type: in vivo; conditions: for Relative ratio of tumor volume: F344 nude rat, day 23 after administration start, relative to no-treatment group (100.0); for Anti-tumor effects in comparison to 3′-ethynylcytidine as the control drug: maximum dose, when the change of the body weight was about 10% or less of the maximum decrease rate
# Method: The human lung cancer LC-11-JCK which had been subcultured under the skin of a rat was made to a block of about 2 mm square, and transplanted subcutaneously into the dorsal part of F344 nude rat using an over-needle catheter. From day 13 after the tumor transplant, the polymer derivative of the present invention (Compound 5, Compound 10) was administered intravenously single time in the dose listed in Table 1. In addition, the control drug (3′-ethynylcytidine; ECyd) was administered subcutaneously by infusion over 24 hours using Alzet pump. Meanwhile, each compound was used as dissolved in 5% glucose solution. The administration was performed such that the dose when the change of the body weight was about 10% of the maximum decrease rate was taken as the maximum dose.
# The tumor volume was measured on the start day of the administration and on day 23 after the administration start with vernier calipers for the major axis (L mm) and minor axis (W mm) of the tumor, and the tumor volume was calculated from (L×W^2)/2, and the relative ratio of the tumor volume with respect to the tumor volume of the no-treatment group (control) was listed in Table 1.
# [4] = single intravenous administration, dose 6 mg/Kg in conversion to 3′-ethynylcytidine
# [5] = single intravenous administration, dose 12 mg/Kg in conversion to 3′-ethynylcytidine
Molecule,Release of 3′-ethynylcytidine from the polymer derivative [1],Release rate of 3′-ethynylcytidine relative to the comparative compounds [1],Micelle formation in water [2],RMS radius by static light scattering method [2],RMS radius by Gaussian distribution analysis (dynamic light scattering) [2],"Relative ratio of tumor volume [3, 4]","Relative ratio of tumor volume [3, 5]",Anti-tumor effects in comparison to 3′-ethynylcytidine as the control drug [3],Release of 3′-ethynylcytidine relative to PEG-Glu-ECyd [1],"Relative ratio of tumor volume ([3]; subcutaneous infusion over 24 hours using Alzet pump, dose 6 mg/Kg)"
"amide-bonded body of block copolymer including methoxy polyethylene-glycol structural moiety having 12,000 of the molecular weight and polyglutamic acid moiety having 21 of the polymerization number, to aspartic acid-1-phenylalanine-(4-phenylbutyl ester)-4-(3′-ethynylcytidine)amide [Compound 21]",release 3′-ethynylcytidine despite the absence of a hydrolysis enzyme,equal to or more than that of the comparative compounds,formed a micelle in water,40 nm,41 nm,–,–,–,–,–
"amide-bonded body of block copolymer including methoxy polyethylene-glycol structural moiety having 12,000 of the molecular weight and polyglutamic acid moiety having 21 of the polymerization number, to aspartic acid-1-phenylbutyl amide-4-(3′-ethynylcytidine)amide [Compound 5]",release 3′-ethynylcytidine despite the absence of a hydrolysis enzyme,equal to or more than that of the comparative compounds,forms a micelle in water,11 nm,18 nm,44.9,29.3,strong anti-tumor effects,more rapidly than PEG-Glu-ECyd,–
"amide-bonded body of block copolymer including two methoxy polyethylene glycol moieties having 5,000 of the molecular weight and polyglutamic acid moiety having 21 of the polymerization number, to aspartic acid-1-adamantane methyl amide-4-(3′-ethynylcytidine)amide [Compound 22]",release 3′-ethynylcytidine despite the absence of a hydrolysis enzyme,equal to or more than that of the comparative compounds,formed a micelle in water,8 nm,14 nm,–,–,–,–,–
"amide-bonded body of block copolymer including methoxy polyethylene-glycol structural moiety having 12,000 of the molecular weight and polyglutamic acid moiety having 21 of the polymerization number, to aspartic acid-1-butyl amide-4-(3′-ethynylcytidine)amide [Compound 10]",release 3′-ethynylcytidine despite the absence of a hydrolysis enzyme,equal to or more than that of the comparative compounds,did not form a micelle in water at this concentration,–,–,46.7,26.4,strong anti-tumor effects,more rapidly than PEG-Glu-ECyd,–
"amide-bonded body of block copolymer including methoxy polyethylene-glycol structural moiety having 12,000 of the molecular weight and polyglutamic acid moiety having 21 of the polymerization number, to aspartic acid-1-adamantane methyl amide-4-(3′-ethynylcytidine)amide [Compound 15]",release 3′-ethynylcytidine despite the absence of a hydrolysis enzyme,equal to or more than that of the comparative compounds,formed a micelle in water,13 nm,20 nm,–,–,–,–,–
"C#C[C@@]1(O)[C@@H](CO)O[C@@H](n2ccc(N)nc2=O)[C@@H]1O [Control drug, 3′-ethynylcytidine, reference compound]",–,–,–,–,–,–,–,–,–,49.4

# Reference: patent US20130331517A1, “Novel Polymer Derivative Of Cytidine Metabolic Antagonist” (NIPPON KAYAKU KABUSHIKI KAISHA, priority 2010, published 2013)
